In patent publication US20200002421A1, “ANTI-B7-H3 ANTIBODIES AND ANTIBODY DRUG CONJUGATES” (AbbVie Inc., priority 2016, published 2020):

Legend:
HCC38 cell line = assay: In vitro cell viability assay (CellTiter-Glo), HCC38; format: cell-based, human; conditions: conjugated to synthon CZ
Description: The tumor cell lines HCC38 (breast cancer), NCI-H1650 (NSCLC) and NCI-H847 (small cell lung cancer cell line) were obtained from American Type Culture Collection (ATCC). Cells were grown in 96-well culture plates using recommended growth media overnight at a density of 5×10^3 (HCC38) or 20×10^3 (NCI-H847) or 40×10^3 (NCI-H1650) per well. The following day, treatments were added in fresh media to triplicate wells. Cellular viability was determined 5 days later using the CellTiter-Glo Luminescent Cell Viability Assay kit (Promega), as directed in the manufacturer's protocol. Cell viability was assessed as percentage of control untreated cells.

[1] = Conjugation observation (precipitation after conjugation, Method A); format: physicochemical; conditions: conjugated to synthon CZ
Description: Table 6 provides cell surface binding and cytotoxicity activity of anti-B7-H3 chimera ADCs against breast cancer cell HCC38 expressing human B7-H3.
A solution of Bond-Breaker™ tris(2-carboxyethyl)phosphine (TCEP) solution (10 mM, 0.017 mL) was added to a solution of antibody (10 mg/mL, 1 mL) preheated to 37° C. The reaction mixture was kept at 37° C. for 1 hour. The solution of reduced antibody was added to a solution of synthon (3.3 mM, 0.160 mL in DMSO) and gently mixed for 30 minutes. The reaction solution was loaded onto a desalting column (PD10, washed with Dulbecco's phosphate-buffered saline [DPBS] 3× before use), followed by DPBS (3 mL). The purified ADC solution was filtered through a 0.2 micron, low protein-binding 13 mm syringe-filter and stored at 4° C.

B1: chAb16: chimeric anti-B7-H3 antibody huIgG1/k, parental hybridoma Ab16; VH SEQ ID NO: 72, VL SEQ ID NO: 76 (antibody, V domains shown)
VH: EVKLLESGGGLVQPGGSLKLSCAASGFDFSRYWMSWVRQAPGKGLEWIGEINPDSSTINYTPSLKDKFIISRDNAKNTLYLQMSKVRSEDTALYYCARPGFGNYIYAMDYWGQGTSVTVSS
VL: DIQMTQTTSSLSASLGDRVTINCRASQDISNFLNWYQQKPDGTVKLLIYYTSRLYLGVPSRFSGSGSGTDYSLTISNLEQEDIATYFCQQGNTLPPTFGGGTKLEIK
modifications: human IgG1/kappa constant regions; Synthetic chAb16 VH amino acid sequence; Synthetic chAb16 VL amino acid sequence
- cytotoxicity in cells expressing human B7-H3 / HCC38 cell line (in words) (HCC38 cell line): weak cytotoxicity
- precipitation following conjugation to synthon CZ (in words) [1]: precipitated
